Experimental data taken from patent US20130288923, “Nucleotide-Based Probes and Methods for the Detection and Quantification of Macromolecules and Other Analytes” (THE REGENTS OF THE UNIVERSITY OF CALIFORNIA, published 2013).

Molecular target: TATA binding protein (TBP) (UniProt P20226 P20226:1-339)
Assay: square wave voltammetry; nM detection in buffer and in 250 ug/mL HeLa nuclear extract
Conditions: tags: recombinantly expressed and purified (Bonham 2009); label: 5'-C6-thiol (gold electrode), internal methylene blue; double stem-loop / single stem-loop switch containing TBP recognition duplex
Description: The ability of the TBP transcription factor electrochemical probe to function in HeLa nuclear cell extract was also tested (FIG. 14(b). The probe directed against TBP was titrated with its target protein against a background of 250 μg/mL crude HeLa nuclear extract (FIG. 14(b), producing a binding curve similar to that observed in buffer (FIG. 14(b). This binding curve was slightly offset from the curve obtained in buffer. Without being limited to any particular theory, a possible explanation for this shift was that this was a contribution from the endogenous TBP present in cell extract. The TBP transcription factor electrochemical probe provided the convenient quantification of transcription factors in cell extract. The sensor's response in buffer, cell extract and, finally, extract to which a large excess of TBP had been added were measured. These measurements were used to calculate the concentration of TF in the sample, C, via the following relationship: […]

Chain of TATA binding protein (TBP) (P20226 whole entry, one chain of several): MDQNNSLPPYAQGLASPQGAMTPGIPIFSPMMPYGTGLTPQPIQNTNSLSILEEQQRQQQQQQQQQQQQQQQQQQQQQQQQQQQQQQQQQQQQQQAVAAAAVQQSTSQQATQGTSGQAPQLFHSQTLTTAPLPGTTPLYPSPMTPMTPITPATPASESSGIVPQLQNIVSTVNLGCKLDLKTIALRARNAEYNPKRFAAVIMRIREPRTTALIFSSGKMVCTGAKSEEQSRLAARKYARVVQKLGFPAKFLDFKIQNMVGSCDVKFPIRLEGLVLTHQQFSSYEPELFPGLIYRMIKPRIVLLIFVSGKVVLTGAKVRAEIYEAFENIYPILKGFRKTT

B1: TBP electrochemical probe (structured_DNA)
DNA: GAATAGGTTCCTATAAAAGGTTGGTTTTATAAACCTATCCTATTC
B1: binds.
